For 112 variants, enrichment results are on record in publication PMC11969024 (2025).

B1: peptide HD2 (from tick evasin EVA4) / CCL22 (biotinylated, synthetic) (parent complex)
chain 1: EEDDYTAYAPLTCYFT
chain 2: GPYGANMEDSVCCRDYVRYRLPLRVVKHFYWTSDSCPRPGVVLLTFRDKEICADPRVPWVKMILNKLSQ

The variants in this experiment derive from B1.
Take chain 1 SEDDYTAYAPLTCYFT [chain 1 E1S]: the enrichment is -1.77 log2 (difference from the parental peptide).

As to chain 1 QEDDYTAYAPLTCYFT [chain 1 E1Q], the enrichment was -0.35 log2 (difference from the parental peptide).

For chain 1 YEDDYTAYAPLTCYFT [chain 1 E1Y], the enrichment is -0.831 log2 (difference from the parental peptide).

chain 1 MEDDYTAYAPLTCYFT [chain 1 E1M]: the enrichment is -0.805 log2 (difference from the parental peptide).

With chain 1 AEDDYTAYAPLTCYFT [chain 1 E1A], the enrichment is -1.32 log2 (difference from the parental peptide).

Take chain 1 TEDDYTAYAPLTCYFT [chain 1 E1T]: the enrichment is -2.09 log2 (difference from the parental peptide).

As to chain 1 FEDDYTAYAPLTCYFT [chain 1 E1F], the enrichment is -2.24 log2 (difference from the parental peptide).

Turning to chain 1 DEDDYTAYAPLTCYFT [chain 1 E1D], the enrichment is 2.17 log2 (difference from the parental peptide).

Take chain 1 GEDDYTAYAPLTCYFT [chain 1 E1G]: the enrichment is -1.59 log2 (difference from the parental peptide).

As to chain 1 EEDDYTAYAPLTCYLT [chain 1 F15L], the enrichment is -0.246 log2 (difference from the parental peptide).

chain 1 EEDDYTAYAPLTCYGT [chain 1 F15G]: the enrichment is -2.74 log2 (difference from the parental peptide).

Take chain 1 EEDDYTAYAPLTCYDT [chain 1 F15D]: the enrichment was -4.01 log2 (difference from the parental peptide).

With chain 1 EEDDYTAYAPLTCYKT [chain 1 F15K], the enrichment is 0.708 log2 (difference from the parental peptide).

In the case of chain 1 EEDDYTAYAPLTCYNT [chain 1 F15N], the enrichment is -0.8 log2 (difference from the parental peptide).

Regarding chain 1 EEDDYTAYAPLTCYHT [chain 1 F15H], the enrichment is 0.892 log2 (difference from the parental peptide).

Regarding chain 1 EEDDYTAYAPLTCYTT [chain 1 F15T], the enrichment is 0.636 log2 (difference from the parental peptide).

As to chain 1 EEDDYTAYAPLTCYFN [chain 1 T16N], the enrichment was 0.543 log2 (difference from the parental peptide).

Take chain 1 EEDDYTAYAPLTCYFC [chain 1 T16C]: the enrichment was -0.313 log2 (difference from the parental peptide).

Regarding chain 1 EEDDYTAYAPLTCYFR [chain 1 T16R], the enrichment was 0.774 log2 (difference from the parental peptide).

chain 1 EEDDYTAYAPLTCYFQ [chain 1 T16Q]: the enrichment was 1.11 log2 (difference from the parental peptide).

For chain 1 EEDDYTAYAPLTCYFP [chain 1 T16P], the enrichment was 1.71 log2 (difference from the parental peptide).

For chain 1 EEDDYTAYAPLTCYFF [chain 1 T16F], the enrichment was -0.929 log2 (difference from the parental peptide).

In the case of chain 1 EEDDYTAYEPLTCYFT [chain 1 A9E], the enrichment was -1.54 log2 (difference from the parental peptide).

Turning to chain 1 EEDDYTAYFPLTCYFT [chain 1 A9F], the enrichment was -6.96 log2 (difference from the parental peptide).

With chain 1 EEDDYTAYRPLTCYFT [chain 1 A9R], the enrichment is 0.319 log2 (difference from the parental peptide).

Consider chain 1 EEDDYTAYKPLTCYFT [chain 1 A9K], for which the enrichment is -1.67 log2 (difference from the parental peptide).

Turning to chain 1 EEDDYTAYYPLTCYFT [chain 1 A9Y], the enrichment is -6.66 log2 (difference from the parental peptide).

On to chain 1 EEDDYTAYQPLTCYFT [chain 1 A9Q], for which the enrichment was -2.13 log2 (difference from the parental peptide).

On to chain 1 EEDDYHAYAPLTCYFT [chain 1 T6H], for which the enrichment was -0.511 log2 (difference from the parental peptide).

As to chain 1 EEDDYGAYAPLTCYFT [chain 1 T6G], the enrichment was 3.08 log2 (difference from the parental peptide).

With chain 1 EEDDYVAYAPLTCYFT [chain 1 T6V], the enrichment was -4.41 log2 (difference from the parental peptide).

For chain 1 EEDDYRAYAPLTCYFT [chain 1 T6R], the enrichment is -0.184 log2 (difference from the parental peptide).

chain 1 EEDDYWAYAPLTCYFT [chain 1 T6W]: the enrichment was 0.246 log2 (difference from the parental peptide).

Regarding chain 1 EEDDYPAYAPLTCYFT [chain 1 T6P], the enrichment was -4.79 log2 (difference from the parental peptide).

As to chain 1 EEDDYYAYAPLTCYFT [chain 1 T6Y], the enrichment was -1.26 log2 (difference from the parental peptide).

Take chain 1 EEDDYIAYAPLTCYFT [chain 1 T6I]: the enrichment is -6.01 log2 (difference from the parental peptide).

Consider chain 1 EEDDYCAYAPLTCYFT [chain 1 T6C], for which the enrichment is -9.54 log2 (difference from the parental peptide).

Consider chain 1 EEDDYFAYAPLTCYFT [chain 1 T6F], for which the enrichment was -4.13 log2 (difference from the parental peptide).

In the case of chain 1 EEDDYKAYAPLTCYFT [chain 1 T6K], the enrichment is -1.04 log2 (difference from the parental peptide).

As to chain 1 EEPDYTAYAPLTCYFT [chain 1 D3P], the enrichment was -3.61 log2 (difference from the parental peptide).

In the case of chain 1 EESDYTAYAPLTCYFT [chain 1 D3S], the enrichment was -4.38 log2 (difference from the parental peptide).

With chain 1 EETDYTAYAPLTCYFT [chain 1 D3T], the enrichment is -3.61 log2 (difference from the parental peptide).

For the variant chain 1 EELDYTAYAPLTCYFT [chain 1 D3L], the enrichment was -5 log2 (difference from the parental peptide).

Regarding chain 1 EENDYTAYAPLTCYFT [chain 1 D3N], the enrichment is -3.54 log2 (difference from the parental peptide).

Take chain 1 EEVDYTAYAPLTCYFT [chain 1 D3V]: the enrichment is -6.53 log2 (difference from the parental peptide).

Regarding chain 1 EEMDYTAYAPLTCYFT [chain 1 D3M], the enrichment was -3.93 log2 (difference from the parental peptide).

On to chain 1 EEDDYTRYAPLTCYFT [chain 1 A7R], for which the enrichment is 1.93 log2 (difference from the parental peptide).

In the case of chain 1 EEDDYTHYAPLTCYFT [chain 1 A7H], the enrichment is -1.29 log2 (difference from the parental peptide).

Take chain 1 EEDDYTGYAPLTCYFT [chain 1 A7G]: the enrichment is 0.519 log2 (difference from the parental peptide).

For chain 1 EEDDYTFYAPLTCYFT [chain 1 A7F], the enrichment is -4.01 log2 (difference from the parental peptide).

On to chain 1 EEDDYTSYAPLTCYFT [chain 1 A7S], for which the enrichment is 0.765 log2 (difference from the parental peptide).

For chain 1 EEDDYTAVAPLTCYFT [chain 1 Y8V], the enrichment was -7.55 log2 (difference from the parental peptide).

chain 1 EEDDYTASAPLTCYFT [chain 1 Y8S]: the enrichment is -8.74 log2 (difference from the parental peptide).

Turning to chain 1 EEDDYTAYAPWTCYFT [chain 1 L11W], the enrichment was -0.394 log2 (difference from the parental peptide).

Regarding chain 1 EEDDYTAYAPATCYFT [chain 1 L11A], the enrichment was -0.478 log2 (difference from the parental peptide).

For the variant chain 1 EEDDYTAYAPSTCYFT [chain 1 L11S], the enrichment was 0.482 log2 (difference from the parental peptide).

Regarding chain 1 EEDDYTAYAPDTCYFT [chain 1 L11D], the enrichment was -5.76 log2 (difference from the parental peptide).

As for chain 1 EEDDYTAYAPCTCYFT [chain 1 L11C], the enrichment was 0.802 log2 (difference from the parental peptide).

chain 1 EEDDYTAYAPHTCYFT [chain 1 L11H]: the enrichment was 2.09 log2 (difference from the parental peptide).

chain 1 EEDDYTAYAPPTCYFT [chain 1 L11P]: the enrichment was -5.29 log2 (difference from the parental peptide).

As to chain 1 EEDDYTAYAPGTCYFT [chain 1 L11G], the enrichment is -5.39 log2 (difference from the parental peptide).

On to chain 1 EEDDYTAYAPRTCYFT [chain 1 L11R], for which the enrichment was 1.13 log2 (difference from the parental peptide).

For chain 1 EEDDYTAYAPFTCYFT [chain 1 L11F], the enrichment is 0.136 log2 (difference from the parental peptide).

In the case of chain 1 EEDDYTAYAPNTCYFT [chain 1 L11N], the enrichment was -4.2 log2 (difference from the parental peptide).

With chain 1 EEDIYTAYAPLTCYFT [chain 1 D4I], the enrichment was -7.79 log2 (difference from the parental peptide).

As to chain 1 EEDWYTAYAPLTCYFT [chain 1 D4W], the enrichment was -3.58 log2 (difference from the parental peptide).

As for chain 1 EEDQYTAYAPLTCYFT [chain 1 D4Q], the enrichment was -6.48 log2 (difference from the parental peptide).

In the case of chain 1 EEDSYTAYAPLTCYFT [chain 1 D4S], the enrichment is -6.14 log2 (difference from the parental peptide).

On to chain 1 EEDMYTAYAPLTCYFT [chain 1 D4M], for which the enrichment was -4.82 log2 (difference from the parental peptide).

Turning to chain 1 EEDLYTAYAPLTCYFT [chain 1 D4L], the enrichment is -6.02 log2 (difference from the parental peptide).

For chain 1 EPDDYTAYAPLTCYFT [chain 1 E2P], the enrichment was -5.46 log2 (difference from the parental peptide).

Turning to chain 1 EHDDYTAYAPLTCYFT [chain 1 E2H], the enrichment is -3.64 log2 (difference from the parental peptide).

Take chain 1 EKDDYTAYAPLTCYFT [chain 1 E2K]: the enrichment was -5.15 log2 (difference from the parental peptide).

For the variant chain 1 EADDYTAYAPLTCYFT [chain 1 E2A], the enrichment is -2.53 log2 (difference from the parental peptide).

For chain 1 EEDDYTAYAPLTIYFT [chain 1 C13I], the enrichment is -3.42 log2 (difference from the parental peptide).

On to chain 1 EEDDYTAYAPLTPYFT [chain 1 C13P], for which the enrichment was -6.43 log2 (difference from the parental peptide).

As for chain 1 EEDDYTAYAPLTTYFT [chain 1 C13T], the enrichment is -3.64 log2 (difference from the parental peptide).

For the variant chain 1 EEDDYTAYAPLTEYFT [chain 1 C13E], the enrichment was -7.93 log2 (difference from the parental peptide).

As for chain 1 EEDDYTAYAPLTHYFT [chain 1 C13H], the enrichment is -3.89 log2 (difference from the parental peptide).

Consider chain 1 EEDDYTAYAPLTNYFT [chain 1 C13N], for which the enrichment is -2.81 log2 (difference from the parental peptide).

chain 1 EEDDYTAYAPLTDYFT [chain 1 C13D]: the enrichment was -7.57 log2 (difference from the parental peptide).

For the variant chain 1 EEDDYTAYAPLTVYFT [chain 1 C13V], the enrichment was -4.77 log2 (difference from the parental peptide).

In the case of chain 1 EEDDYTAYAPLTGYFT [chain 1 C13G], the enrichment was -5.34 log2 (difference from the parental peptide).

For chain 1 EEDDYTAYAPLTYYFT [chain 1 C13Y], the enrichment was -2.53 log2 (difference from the parental peptide).

On to chain 1 EEDDYTAYAPLTCWFT [chain 1 Y14W], for which the enrichment is -0.554 log2 (difference from the parental peptide).

Take chain 1 EEDDYTAYAPLTCNFT [chain 1 Y14N]: the enrichment was -0.898 log2 (difference from the parental peptide).

In the case of chain 1 EEDDYTAYAPLTCAFT [chain 1 Y14A], the enrichment is -1.98 log2 (difference from the parental peptide).

As to chain 1 EEDDYTAYAPLTCPFT [chain 1 Y14P], the enrichment is -3.33 log2 (difference from the parental peptide).

As to chain 1 EEDDYTAYAPLTCFFT [chain 1 Y14F], the enrichment was -0.133 log2 (difference from the parental peptide).

On to chain 1 EEDDYTAYAPLTCGFT [chain 1 Y14G], for which the enrichment is -4.12 log2 (difference from the parental peptide).

In the case of chain 1 EEDDYTAYAPLTCLFT [chain 1 Y14L], the enrichment is -2.35 log2 (difference from the parental peptide).

As to chain 1 EEDDYTAYAPLTCKFT [chain 1 Y14K], the enrichment was -0.0931 log2 (difference from the parental peptide).

Turning to chain 1 EEDDYTAYAPLTCTFT [chain 1 Y14T], the enrichment is 1.08 log2 (difference from the parental peptide).

Regarding chain 1 EEDDYTAYAPLTCSFT [chain 1 Y14S], the enrichment is 0.0467 log2 (difference from the parental peptide).

For the variant chain 1 EEDDYTAYAPLTCRFT [chain 1 Y14R], the enrichment was -0.04 log2 (difference from the parental peptide).

As for chain 1 EEDDYTAYAYLTCYFT [chain 1 P10Y], the enrichment is -6.98 log2 (difference from the parental peptide).

As to chain 1 EEDDYTAYAWLTCYFT [chain 1 P10W], the enrichment is -5.26 log2 (difference from the parental peptide).

Consider chain 1 EEDDYTAYAGLTCYFT [chain 1 P10G], for which the enrichment was -7.9 log2 (difference from the parental peptide).

With chain 1 EEDDATAYAPLTCYFT [chain 1 Y5A], the enrichment is -7.07 log2 (difference from the parental peptide).

For the variant chain 1 EEDDLTAYAPLTCYFT [chain 1 Y5L], the enrichment is -1.89 log2 (difference from the parental peptide).

For chain 1 EEDDMTAYAPLTCYFT [chain 1 Y5M], the enrichment is -1.76 log2 (difference from the parental peptide).

As to chain 1 EEDDITAYAPLTCYFT [chain 1 Y5I], the enrichment was -6.63 log2 (difference from the parental peptide).

As for chain 1 EEDDSTAYAPLTCYFT [chain 1 Y5S], the enrichment was -6.78 log2 (difference from the parental peptide).

With chain 1 EEDDWTAYAPLTCYFT [chain 1 Y5W], the enrichment is 1.1 log2 (difference from the parental peptide).

Consider chain 1 EEDDYTAYAPLYCYFT [chain 1 T12Y], for which the enrichment is 2.35 log2 (difference from the parental peptide).

chain 1 EEDDYTAYAPLPCYFT [chain 1 T12P]: the enrichment is 2.6 log2 (difference from the parental peptide).

Take chain 1 EEDDYTAYAPLICYFT [chain 1 T12I]: the enrichment was -0.506 log2 (difference from the parental peptide).

For the variant chain 1 EEDDYTAYAPLFCYFT [chain 1 T12F], the enrichment is -1.02 log2 (difference from the parental peptide).

For the variant chain 1 EEDDYTAYAPLMCYFT [chain 1 T12M], the enrichment was -0.275 log2 (difference from the parental peptide).

Consider chain 1 EEDDYTAYAPLNCYFT [chain 1 T12N], for which the enrichment was -0.224 log2 (difference from the parental peptide).

As for chain 1 EEDDYTAYAPLACYFT [chain 1 T12A], the enrichment was -0.997 log2 (difference from the parental peptide).

As to chain 1 EEDDYTAYAPLRCYFT [chain 1 T12R], the enrichment was 4.22 log2 (difference from the parental peptide).
